Experimental data reported in US7494647 (Chugai, dated 2009).

biological target: TF/Factor VIIa complex (human, UniProt P13726 33-295; P08709 61-466); assay: cell-based or functional assay
Sequence (P13726 33-295 limits assumed, chain 1 of 2): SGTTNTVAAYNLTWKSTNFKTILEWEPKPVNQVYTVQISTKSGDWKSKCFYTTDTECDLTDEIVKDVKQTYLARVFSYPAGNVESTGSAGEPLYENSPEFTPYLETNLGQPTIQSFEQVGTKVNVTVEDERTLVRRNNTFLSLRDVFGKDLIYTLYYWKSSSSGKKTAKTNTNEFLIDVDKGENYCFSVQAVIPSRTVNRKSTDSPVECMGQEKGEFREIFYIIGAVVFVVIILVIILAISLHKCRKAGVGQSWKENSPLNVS
Sequence (P08709 61-466 limits assumed, chain 2 of 2): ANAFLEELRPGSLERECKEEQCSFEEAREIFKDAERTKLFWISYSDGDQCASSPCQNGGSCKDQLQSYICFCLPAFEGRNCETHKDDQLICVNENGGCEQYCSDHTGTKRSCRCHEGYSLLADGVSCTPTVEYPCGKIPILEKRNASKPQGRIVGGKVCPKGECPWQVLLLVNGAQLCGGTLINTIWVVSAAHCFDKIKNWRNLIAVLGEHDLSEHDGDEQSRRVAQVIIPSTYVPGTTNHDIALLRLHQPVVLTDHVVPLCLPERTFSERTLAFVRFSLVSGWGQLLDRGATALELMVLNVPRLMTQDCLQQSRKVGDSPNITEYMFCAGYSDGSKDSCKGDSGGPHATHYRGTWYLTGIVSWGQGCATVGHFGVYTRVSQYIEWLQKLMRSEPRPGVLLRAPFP

Binder	IC50 (read off the curve) [µg/mL]
H chain humanized version i/L chain humanized version b antibody (antibody, IgG4, V domains shown) VH: QVQLLESGAVLARPGTSVKISCKASGFNIKDYYMHWVKQRPGQGLEWIGGNDPANGHSMYDPKFQGRVTITADTSTSTAYMELRSLRSDDTAVYYCARDSGYAMDYWGQGTLVTVSS VL: DIQMTQSPSSLSASVGDRVTITCKASQDIKSFLSWYQQKPGKAPKLLIYYATSLADGVPSRFSGSGSGTDYTLTISSLQPEDFATYYCLQHGESPYTFGGGTKVEIK	~0.1
H chain humanized version i/L chain humanized version b2 antibody (antibody, IgG4, V domains shown, also called i-b2; ib2) VH: QVQLLESGAVLARPGTSVKISCKASGFNIKDYYMHWVKQRPGQGLEWIGGNDPANGHSMYDPKFQGRVTITADTSTSTAYMELRSLRSDDTAVYYCARDSGYAMDYWGQGTLVTVSS VL: DIQMTQSPSSLSASVGDRVTITCKASQDIKSFLSWYQQKPEKAPKSLIYYATSLADGVPSRFSGSGSGTDYTLTISSLQPEDFATYYCLQHGESPYTFGGGTKVEIK	~0.06

biological target: T1, soluble human TF (human TF 1-219 with the FLAG peptide linked to the C-terminal) (human, UniProt P13726 33-251); assay: BIACORE; antibody captured on Protein G chip, soluble TF as analyte; mean ± SD, n = 3
T1 construct: Entry is the whole soluble construct (TF 1-219 followed by FLAG peptide M2); also called soluble TF; shTF
Protocol: Kinetic analysis of the antigen-antibody reaction was carried out using BIACORE. The recombinant Protein G was immobilized on a sensor chip, to which the antibody was coupled. The purified recombinant TF (a soluble TF in which the FLAG peptide was tagged at 1-219) was used as the antigen, and the-soluble TF prepared at various concentrations were used as analytes. From the sensorgram obtained, kinetic parameters (dissociation rate constants kdiss, and binding rate constants kass) were calculated.
As the running buffer, the HBS-EP buffer was used. Ten μl Of […] antibody solution was injected at a flow rate of 20 μl/min to immobilize antibody. The antibody was diluted with the HBS-EP buffer. Forty μl Of the soluble human TF solution at various concentrations were injected at a flow rate of 30 μl/min thereto. In the analysis, 80 seconds for injection was set as the binding phase and then changed to the HBS-EP buffer to set the dissociation phase of 120 seconds. After the dissociation phase was over, 10 μl of 20 mM hydrochloric acid was injected to reconstitute the sensor chip. The binding, dissociation, and reconstitution were set as one cycle, and the sensorgram was obtained for each antibody. The soluble human TF solution was prepared at concentrations of 250 nM, 125 nM, 62.5 nM, 31.3 nM, 15.6 nM, 7.81 nM, and 3.91 nM using the HBS-EP buffer. As the blank, the sensorgram obtained by injecting the HBS-EP buffer used for dilution was used.
The data file of interest was read in, and the comparison of reaction patterns by superscription was made using as the baseline the sensorgram of the HBS-EP buffer. Furthermore, using an analytical application software "BIAevaluation 2.1" (Pharmacia) exclusively for BIACORE that calculates kinetic parameters (binding rate constants kass and dissociation rate constants kdiss) by curve-fitting, kinetic analysis of interaction was performed. In order to determine the binding rate constants kass, the analysis model type 4 was used (BIAevaluation 2.1 Software Hand book, A1-A5). Based on the values calculated from each flow cell, kinetic parameters for each antibody were obtained.

T1 sequence (P13726 other isoform, or with tags, fused parts or gaps limits assumed): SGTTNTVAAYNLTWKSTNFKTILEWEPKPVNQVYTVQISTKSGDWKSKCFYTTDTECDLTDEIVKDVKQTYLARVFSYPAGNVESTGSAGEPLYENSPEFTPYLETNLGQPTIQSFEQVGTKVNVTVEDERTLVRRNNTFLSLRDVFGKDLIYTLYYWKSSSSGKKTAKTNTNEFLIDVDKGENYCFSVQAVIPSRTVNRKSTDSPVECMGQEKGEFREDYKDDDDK

Binder	Kd [nM]	koff [s⁻¹]	kon [M⁻¹ s⁻¹]
H chain humanized version i/L chain humanized version b antibody (antibody, IgG4, V domains shown) VH: QVQLLESGAVLARPGTSVKISCKASGFNIKDYYMHWVKQRPGQGLEWIGGNDPANGHSMYDPKFQGRVTITADTSTSTAYMELRSLRSDDTAVYYCARDSGYAMDYWGQGTLVTVSS VL: DIQMTQSPSSLSASVGDRVTITCKASQDIKSFLSWYQQKPGKAPKLLIYYATSLADGVPSRFSGSGSGTDYTLTISSLQPEDFATYYCLQHGESPYTFGGGTKVEIK	1.39	0.000649	467000
H chain humanized version i/L chain humanized version b2 antibody (antibody, IgG4, V domains shown, also called i-b2; ib2) VH: QVQLLESGAVLARPGTSVKISCKASGFNIKDYYMHWVKQRPGQGLEWIGGNDPANGHSMYDPKFQGRVTITADTSTSTAYMELRSLRSDDTAVYYCARDSGYAMDYWGQGTLVTVSS VL: DIQMTQSPSSLSASVGDRVTITCKASQDIKSFLSWYQQKPEKAPKSLIYYATSLADGVPSRFSGSGSGTDYTLTISSLQPEDFATYYCLQHGESPYTFGGGTKVEIK	1.17	0.000635	544000

biological target: T2, human tissue factor (TF) on human bladder carcinoma cells J82 (human, UniProt P13726 33-295); assay: cell ELISA on paraformaldehyde-fixed J82 cells; AP-conjugated goat anti-human IgGγ; absorbance 405/655 nm
T2 construct: whole, on cells; also called the antigen; J82 cells
Protocol: (§1) Cell ELISA plates for measurement of antigen binding were prepared as follows. Cells used were human bladder carcinoma cells J82 (ATCC HTB-1). To 60 wells of a 96-well cell culture plate, 1 ×10^5 J82 cells were inoculated. This was cultured (RPMI1640 medium containing 10% fetal bovine serum (GIBCO)) for one day in a CO_2 incubator to allow the cells to be attached thereto. After discarding the culture liquid, each well was washed twice with 300 μl PBS. 100 μl of PBS containing 4% paraformaldehyde (hereinafter referred to as PFA/PBS) was added to each well, and placed on ice for 10 minutes to immobilize the cells.
(§2) PFA/PBS was discarded, and each well was washed twice with 300 μl of PBS, and then blocked with 250 μl of DB. The culture supernatant or purified antibody was serially diluted with DB, 100 μl of which was added to each well. After incubating at room temperature for 2 hours followed by washing with RB, 100 μl of alkaline phosphatase-conjugated goat anti-human IgGγ antibody (BioSource) diluted 1000-fold with DB was added. After incubating for 1 hour followed by washing with RB, the substrate solution was added, and then absorbance at 405/655 nm was measured using the Microplate Reader (Bio-Rad).

T2 sequence (P13726 33-295): as the sequence (P13726 33-295 limits assumed, chain 1 of 2) above

Binder	EC50 (read off the curve) [µg/mL]	binding result
H chain humanized version b/L chain humanized version a antibody (antibody, IgG4, V domains shown, also called b-a) VH: QVQLLESGAVLARPGTSVKISCKASGFNIKDYYMHWVKQRPGQGLEWIGGNDPANGHSMYDPKFQGRVTITADTSTNTAYMELSSLRSEDTAIYYCARDSGYAMDYWGQGTLVTVSS VL: DIQMTQSPSSLSASVGDRVTITCKASQDIKSFLSWYQQKPGKAPKLLIYYATSLADGVPSRFSGSGSGTDFTLTISSLQPEDFATYYCLQHGESPYTFGGGTKVEIK	~0.1	–
H chain humanized version i/L chain chimeric antibody (antibody, IgG4, V domains shown, L chain V region is that of mouse ATR-5; also called i-ch) VH: QVQLLESGAVLARPGTSVKISCKASGFNIKDYYMHWVKQRPGQGLEWIGGNDPANGHSMYDPKFQGRVTITADTSTSTAYMELRSLRSDDTAVYYCARDSGYAMDYWGQGTLVTVSS VL: DIKMTQSPSSMYASLGERVTITCKASQDIKSFLSWYQQKPWKSPKTLIYYATSLADGVPSRFSGSGSGQDYSLTINNLESDDTATYYCLQHGESPYTFGGGTKLEIK	–	binds
H chain humanized version e/L chain chimeric antibody (antibody, IgG4, V domains shown, L chain V region is that of mouse ATR-5; also called e-ch) VH: QVQLLESGAVLARPGTSVKISCKASGFNIKDYYMHWVKQRPGQGLEWIGGNDPANGHSMYDPKFQGRVSITADESTKIAYMELNSLRSEDTAVYFCARDSGYAMDYWGQGTLVTVSS VL: DIKMTQSPSSMYASLGERVTITCKASQDIKSFLSWYQQKPWKSPKTLIYYATSLADGVPSRFSGSGSGQDYSLTINNLESDDTATYYCLQHGESPYTFGGGTKLEIK	~0.05	–
H chain chimeric/L chain humanized version b1 antibody (antibody, IgG4, V domains shown, H chain V region is that of mouse ATR-5; also called ch-b1) VH: EVQLQQSGTNLVRPGALVKLSCKGSGFNIKDYYMHWVKQRPEQGLEWIGGNDPANGHSMYDPKFQGKASITADTSSNTAYLQLSSLTSEDTAVYFCARDSGYAMDYWGQGTSVTVSS VL: DIQMTQSPSSLSASVGDRVTITCKASQDIKSFLSWFQQKPGKSPKTLIYYATSLADGVPSRFSGSGSGTDYTLTISSLQPEDFATYYCLQHGESPYTFGGGTKVEIK	–	binds
H chain humanized version d/L chain chimeric antibody (antibody, IgG4, V domains shown, L chain V region is that of mouse ATR-5; also called d-ch) VH: QVQLLESGAVLARPGTSVKISCKASGFNIKDYYMHWVKQRPGQGLEWIGGNDPANGHSMYDPKFQGRVTITADESTSTAYMELSSLRSEDSAVYFCARDSGYAMDYWGQGTLVTVSS VL: DIKMTQSPSSMYASLGERVTITCKASQDIKSFLSWYQQKPWKSPKTLIYYATSLADGVPSRFSGSGSGQDYSLTINNLESDDTATYYCLQHGESPYTFGGGTKLEIK	~0.07	–
H chain humanized version d/L chain humanized version b antibody (antibody, IgG4, V domains shown, also called d-b) VH: QVQLLESGAVLARPGTSVKISCKASGFNIKDYYMHWVKQRPGQGLEWIGGNDPANGHSMYDPKFQGRVTITADESTSTAYMELSSLRSEDSAVYFCARDSGYAMDYWGQGTLVTVSS VL: DIQMTQSPSSLSASVGDRVTITCKASQDIKSFLSWYQQKPGKAPKLLIYYATSLADGVPSRFSGSGSGTDYTLTISSLQPEDFATYYCLQHGESPYTFGGGTKVEIK	–	binds
H chain humanized version j/L chain humanized version b antibody (antibody, IgG4, V domains shown, also called j-b) VH: QVQLLESGAVLARPGTSVKISCKASGFNIKDYYMHWVKQRPGQGLEWIGGNDPANGHSMYDPKFQGRVTFTADTSANTAYMELRSLRSADTAVYYCARDSGYAMDYWGQGTLVTVSS VL: DIQMTQSPSSLSASVGDRVTITCKASQDIKSFLSWYQQKPGKAPKLLIYYATSLADGVPSRFSGSGSGTDYTLTISSLQPEDFATYYCLQHGESPYTFGGGTKVEIK	–	binds
H chain humanized version b/L chain chimeric antibody (antibody, IgG4, V domains shown, L chain V region is that of mouse ATR-5; also called b-ch) VH: QVQLLESGAVLARPGTSVKISCKASGFNIKDYYMHWVKQRPGQGLEWIGGNDPANGHSMYDPKFQGRVTITADTSTNTAYMELSSLRSEDTAIYYCARDSGYAMDYWGQGTLVTVSS VL: DIKMTQSPSSMYASLGERVTITCKASQDIKSFLSWYQQKPWKSPKTLIYYATSLADGVPSRFSGSGSGQDYSLTINNLESDDTATYYCLQHGESPYTFGGGTKLEIK	~0.1	–
H chain chimeric/L chain humanized version b2 antibody (antibody, IgG4, V domains shown, H chain V region is that of mouse ATR-5; also called ch-b2) VH: EVQLQQSGTNLVRPGALVKLSCKGSGFNIKDYYMHWVKQRPEQGLEWIGGNDPANGHSMYDPKFQGKASITADTSSNTAYLQLSSLTSEDTAVYFCARDSGYAMDYWGQGTSVTVSS VL: DIQMTQSPSSLSASVGDRVTITCKASQDIKSFLSWYQQKPEKAPKSLIYYATSLADGVPSRFSGSGSGTDYTLTISSLQPEDFATYYCLQHGESPYTFGGGTKVEIK	–	binds
H chain humanized version g/L chain humanized version b antibody (antibody, IgG4, V domains shown, also called g-b) VH: QVQLLESGAVLARPGTSVKISCKASGFNIKDYYMHWVKQRPGQGLEWIGGNDPANGHSMYDPKFQGKATLTADESSSTAYMQLSSLRSEDSAVYSCARDSGYAMDYWGQGTLVTVSS VL: DIQMTQSPSSLSASVGDRVTITCKASQDIKSFLSWYQQKPGKAPKLLIYYATSLADGVPSRFSGSGSGTDYTLTISSLQPEDFATYYCLQHGESPYTFGGGTKVEIK	~0.04	–
H chain humanized version j/L chain chimeric antibody (antibody, IgG4, V domains shown, L chain V region is that of mouse ATR-5; also called j-ch) VH: QVQLLESGAVLARPGTSVKISCKASGFNIKDYYMHWVKQRPGQGLEWIGGNDPANGHSMYDPKFQGRVTFTADTSANTAYMELRSLRSADTAVYYCARDSGYAMDYWGQGTLVTVSS VL: DIKMTQSPSSMYASLGERVTITCKASQDIKSFLSWYQQKPWKSPKTLIYYATSLADGVPSRFSGSGSGQDYSLTINNLESDDTATYYCLQHGESPYTFGGGTKLEIK	–	binds
H chain humanized version i/L chain humanized version b1 antibody (antibody, IgG4, V domains shown, also called i-b1) VH: QVQLLESGAVLARPGTSVKISCKASGFNIKDYYMHWVKQRPGQGLEWIGGNDPANGHSMYDPKFQGRVTITADTSTSTAYMELRSLRSDDTAVYYCARDSGYAMDYWGQGTLVTVSS VL: DIQMTQSPSSLSASVGDRVTITCKASQDIKSFLSWFQQKPGKSPKTLIYYATSLADGVPSRFSGSGSGTDYTLTISSLQPEDFATYYCLQHGESPYTFGGGTKVEIK	–	binds
H chain humanized version c/L chain chimeric antibody (antibody, IgG4, V domains shown, L chain V region is that of mouse ATR-5; also called c-ch) VH: QVQLLESGAVLARPGTSVKISCKASGFNIKDYYMHWVKQRPGQGLEWIGGNDPANGHSMYDPKFQGRVTMLVDTSKNQFSLRLSSVTAADTAVYYCARDSGYAMDYWGQGTLVTVSS VL: DIKMTQSPSSMYASLGERVTITCKASQDIKSFLSWYQQKPWKSPKTLIYYATSLADGVPSRFSGSGSGQDYSLTINNLESDDTATYYCLQHGESPYTFGGGTKLEIK	~0.09	–

biological target: T2, human tissue factor (TF) on human …; assay: as above; remark: another data set of the same source
Protocol: as §1, §2

Binder	EC50 (read off the curve) [µg/mL]
H chain chimeric/L chain humanized version b antibody (antibody, IgG4, V domains shown, H chain V region is that of mouse ATR-5; also called ch-b) VH: EVQLQQSGTNLVRPGALVKLSCKGSGFNIKDYYMHWVKQRPEQGLEWIGGNDPANGHSMYDPKFQGKASITADTSSNTAYLQLSSLTSEDTAVYFCARDSGYAMDYWGQGTSVTVSS VL: DIQMTQSPSSLSASVGDRVTITCKASQDIKSFLSWYQQKPGKAPKLLIYYATSLADGVPSRFSGSGSGTDYTLTISSLQPEDFATYYCLQHGESPYTFGGGTKVEIK	~0.08
